Results taken from patent US7144983.
pIC50: −log10 of the molar value.

What follows are substances tested against trkA + p75 receptors on rat PC12 pheochromocytoma cells (rat) (UniProt P35739) (assay: 125I-hNGF displacement, PC12 cells (trkA+p75), 4 C).
trkA + p75 receptors on rat PC12 pheochromocytoma cells (rat), sequence (P35739 33-799, chain 1 of 2): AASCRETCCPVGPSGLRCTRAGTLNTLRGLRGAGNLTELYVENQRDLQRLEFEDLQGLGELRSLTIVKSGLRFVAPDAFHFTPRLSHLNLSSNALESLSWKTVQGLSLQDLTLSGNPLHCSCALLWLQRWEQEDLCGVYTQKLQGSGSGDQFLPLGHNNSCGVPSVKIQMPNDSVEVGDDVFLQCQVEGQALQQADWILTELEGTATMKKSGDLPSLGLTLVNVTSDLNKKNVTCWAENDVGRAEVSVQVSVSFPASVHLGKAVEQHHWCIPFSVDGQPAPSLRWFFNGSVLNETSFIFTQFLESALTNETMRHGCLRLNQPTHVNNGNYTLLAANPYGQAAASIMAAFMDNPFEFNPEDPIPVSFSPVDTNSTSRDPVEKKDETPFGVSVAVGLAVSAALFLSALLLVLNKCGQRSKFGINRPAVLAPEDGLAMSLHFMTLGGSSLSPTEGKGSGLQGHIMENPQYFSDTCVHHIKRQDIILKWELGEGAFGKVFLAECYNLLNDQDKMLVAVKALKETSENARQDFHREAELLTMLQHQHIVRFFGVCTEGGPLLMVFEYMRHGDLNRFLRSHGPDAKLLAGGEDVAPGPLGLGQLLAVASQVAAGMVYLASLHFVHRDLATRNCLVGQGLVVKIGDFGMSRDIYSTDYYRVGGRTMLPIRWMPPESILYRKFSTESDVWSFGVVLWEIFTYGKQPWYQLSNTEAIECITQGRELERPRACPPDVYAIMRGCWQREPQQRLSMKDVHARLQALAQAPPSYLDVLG
trkA + p75 receptors on rat PC12 pheochromocytoma cells (rat), sequence (P07174 30-425, chain 2 of 2, further chain): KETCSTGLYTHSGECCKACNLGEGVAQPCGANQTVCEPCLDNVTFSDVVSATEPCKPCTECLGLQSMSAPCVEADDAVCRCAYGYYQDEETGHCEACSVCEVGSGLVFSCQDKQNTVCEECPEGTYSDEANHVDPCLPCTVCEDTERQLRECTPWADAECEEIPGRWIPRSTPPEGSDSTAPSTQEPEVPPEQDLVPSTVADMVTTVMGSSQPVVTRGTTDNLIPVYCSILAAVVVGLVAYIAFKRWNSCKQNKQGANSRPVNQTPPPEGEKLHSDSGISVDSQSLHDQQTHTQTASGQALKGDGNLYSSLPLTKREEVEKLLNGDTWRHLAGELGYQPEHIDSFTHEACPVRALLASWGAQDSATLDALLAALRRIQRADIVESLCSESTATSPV

| pIC50 | Substance |
| --- | --- |
| 9.74 | hNGF Mut 1 (H4A) (from UniProt P01138 122-241) (ligand) |
| 8.39 | hNGF (10-118) (from UniProt P01138 131-239) (ligand) |
| 9.37 | hNGF Mut 2 (H4D) (from UniProt P01138 122-241) (ligand) |
| 10.30 | hNGF (1-118) (from UniProt P01138 122-239) (ligand) |
| 9.74 | hNGF Mut 3 (R9A) (from UniProt P01138 122-241) (ligand) |
| 10.22 | mNGF (1-118) (from UniProt P01139 122-239) (ligand) |
| 9.89 | hNGF (6-118) (from UniProt P01138 127-239) (ligand) |
| 9.41 | hNGF Mut 4 (H4A, H8A, R9A) (from UniProt P01138 122-241) (ligand) |
